Results published in US20090035321A1, “Intercellular adhesion molecules and their binding ligands” (Boehringer Ingelheim Pharmaceuticals, Inc., published 2009).

What was measured:
Experiment in all cases: flow, COS cells
ICAM-1 S3VS/AGL = ICAM-1 S3VS/AGL (human, UniProt P05362)
ICAM-1 G15/SA = ICAM-1 G15/SA (human, UniProt P05362)
ICAM-1 D203TQ/TAD = ICAM-1 D203TQ/TAD (human, UniProt P05362)
ICAM-1 K50V/EL = ICAM-1 K50V/EL (human, UniProt P05362)
ICAM-1 Q58/H = ICAM-1 Q58/H (human, UniProt P05362)
ICAM-1 D71GQS/NGEL = ICAM-1 D71GQS/NGEL (human, UniProt P05362)
ICAM-1 N68/K = ICAM-1 N68/K (human, UniProt P05362)
ICAM-1 N103/K = ICAM-1 N103/K (human, UniProt P05362)
[1] = target: ICAM-1 A115N/SV (printed A155N/SV at paragraph 410) (human) (UniProt P05362)
ICAM-1 L91/A = ICAM-1 L91/A (human, UniProt P05362)
ICAM-1 Q1/K = ICAM-1 Q1/K (human, UniProt P05362)
ICAM-1 M64/I = ICAM-1 M64/I (human, UniProt P05362)
ICAM-1 Q58EDS/AKDI = ICAM-1 Q58EDS/AKDI (human, UniProt P05362)
ICAM-1 K40/A = ICAM-1 K40/A (human, UniProt P05362)
ICAM-1 Q73/H = ICAM-1 Q73/H (human, UniProt P05362)
ICAM-1 H152HGA/EEGS = ICAM-1 H152HGA/EEGS (human, UniProt P05362)
ICAM-1 T20CS/ACT = ICAM-1 T20CS/ACT (human, UniProt P05362)
ICAM-1 A189T/SI = ICAM-1 A189T/SI (human, UniProt P05362)
ICAM-1 R149RD/EEG = ICAM-1 R149RD/EEG (human, UniProt P05362)
ICAM-1 D71/E = ICAM-1 D71/E (human, UniProt P05362)
ICAM-1 D60/K = ICAM-1 D60/K (human, UniProt P05362)
ICAM-1 S177/G = ICAM-1 S177/G (human, UniProt P05362)
ICAM-1 N48/H = ICAM-1 N48/H (human, UniProt P05362)
ICAM-1 Q27/L = ICAM-1 Q27/L (human, UniProt P05362)
ICAM-1 K39KE/ERQ = ICAM-1 K39KE/ERQ (human, UniProt P05362)
ICAM-1 D60S/KL = ICAM-1 D60S/KL (human, UniProt P05362)
ICAM-1 D60/N = ICAM-1 D60/N (human, UniProt P05362)
ICAM-1 T75/A = ICAM-1 T75/A (human, UniProt P05362)
ICAM-1 D213GL/HGV = ICAM-1 D213GL/HGV (human, UniProt P05362)
ICAM-1 S74/A = ICAM-1 S74/A (human, UniProt P05362)
ICAM-1 E59/K = ICAM-1 E59/K (human, UniProt P05362)
ICAM-1 R13/K = ICAM-1 R13/K (human, UniProt P05362)
ICAM-1 E111GGA/KAGS = ICAM-1 E111GGA/KAGS (human, UniProt P05362)
ICAM-1 S61/I = ICAM-1 S61/I (human, UniProt P05362)
ICAM-1 Q73/T = ICAM-1 Q73/T (human, UniProt P05362)
ICAM-1 E127/R = ICAM-1 E127/R (human, UniProt P05362)
ICAM-1 S3/T = ICAM-1 S3/T (human, UniProt P05362)
ICAM-1 D71/N = ICAM-1 D71/N (human, UniProt P05362)
ICAM-1 Q1T/KA = ICAM-1 Q1T/KA (human, UniProt P05362)
ICAM-1 Y52/F = ICAM-1 Y52/F (human, UniProt P05362)
ICAM-1 K8/E = ICAM-1 K8/E (human, UniProt P05362)
ICAM-1 S24/A = ICAM-1 S24/A (human, UniProt P05362)
ICAM-1 Q62PM/API = ICAM-1 Q62PM/API (human, UniProt P05362)
ICAM-1 N175TSA/QTLG = ICAM-1 N175TSA/QTLG (human, UniProt P05362)
ICAM-1 R13G/EA = ICAM-1 R13G/EA (human, UniProt P05362)
ICAM-1 R49KV/EKL = ICAM-1 R49KV/EKL (human, UniProt P05362)
ICAM-1 G46NN/ASI = ICAM-1 G46NN/ASI (human, UniProt P05362)
ICAM-1 R13/E = ICAM-1 R13/E (human, UniProt P05362)
ICAM-1 N175/A = ICAM-1 N175/A (human, UniProt P05362)
ICAM-1 R13/Q = ICAM-1 R13/Q (human, UniProt P05362)
ICAM-1 E34/A = ICAM-1 E34/A (human, UniProt P05362)

monoclonal antibody CL203
SLFI % WT (ICAM-1 S3VS/AGL): 121 % WT | SLFI % WT (ICAM-1 G15/SA): 172 % WT | SLFI % WT (ICAM-1 D203TQ/TAD): 125 % WT | SLFI % WT (ICAM-1 K50V/EL): 103 % WT | SLFI % WT (ICAM-1 Q58/H): 135 % WT | SLFI % WT (ICAM-1 D71GQS/NGEL): 161 % WT | SLFI % WT (ICAM-1 N68/K): 153 % WT | SLFI % WT (ICAM-1 N103/K): 91 % WT | SLFI % WT [1]: 60 % WT | SLFI % WT (ICAM-1 L91/A): 15 % WT | SLFI % WT (ICAM-1 Q1/K): 168 % WT | SLFI % WT (ICAM-1 M64/I): 183 % WT | SLFI % WT (ICAM-1 Q58EDS/AKDI): 98 % WT | SLFI % WT (ICAM-1 K40/A): 146 % WT | SLFI % WT (ICAM-1 Q73/H): 139 % WT | SLFI % WT (ICAM-1 H152HGA/EEGS): 94 % WT | SLFI % WT (ICAM-1 T20CS/ACT): 148 % WT | SLFI % WT (ICAM-1 A189T/SI): 138 % WT | SLFI % WT (ICAM-1 R149RD/EEG): 159 % WT | SLFI % WT (ICAM-1 D71/E): 124 % WT | SLFI % WT (ICAM-1 D60/K): 89 % WT | SLFI % WT (ICAM-1 S177/G): 87 % WT | SLFI % WT (ICAM-1 N48/H): 164 % WT | SLFI % WT (ICAM-1 Q27/L): 33 % WT | SLFI % WT (ICAM-1 K39KE/ERQ): 84 % WT | SLFI % WT (ICAM-1 D60S/KL): 105 % WT | SLFI % WT (ICAM-1 D60/N): 127 % WT | SLFI % WT (ICAM-1 T75/A): 153 % WT | SLFI % WT (ICAM-1 D213GL/HGV): 128 % WT | SLFI % WT (ICAM-1 S74/A): 129 % WT | SLFI % WT (ICAM-1 E59/K): 130 % WT | SLFI % WT (ICAM-1 R13/K): 189 % WT | SLFI % WT (ICAM-1 E111GGA/KAGS): 122 % WT | SLFI % WT (ICAM-1 S61/I): 140 % WT | SLFI % WT (ICAM-1 Q73/T): 218 % WT | SLFI % WT (ICAM-1 E127/R): 191 % WT | SLFI % WT (ICAM-1 S3/T): 224 % WT | SLFI % WT (ICAM-1 D71/N): 109 % WT | SLFI % WT (ICAM-1 Q1T/KA): 230 % WT | SLFI % WT (ICAM-1 Y52/F): 152 % WT | SLFI % WT (ICAM-1 K8/E): 111 % WT | SLFI % WT (ICAM-1 S24/A): 158 % WT | SLFI % WT (ICAM-1 Q62PM/API): 200 % WT | SLFI % WT (ICAM-1 N175TSA/QTLG): 75 % WT | SLFI % WT (ICAM-1 R13G/EA): 132 % WT | SLFI % WT (ICAM-1 R49KV/EKL): 233 % WT | SLFI % WT (ICAM-1 G46NN/ASI): 151 % WT | SLFI % WT (ICAM-1 R13/E): 202 % WT | SLFI % WT (ICAM-1 N175/A): 80 % WT | SLFI % WT (ICAM-1 R13/Q): 161 % WT | SLFI % WT (ICAM-1 E34/A): 132 % WT
